Measured values reported in patent publication US20260308278 (published 2026).
Where a chain is given by its changes, count along the chain named. One block for each binder: values may come before it.

Experiments:
scFcRn = scFcRn (human, UniProt P55899); assay: SPR, pH 6.0, 25C
[1] = target: T1, human C3bBb (Bb from FB D279G/K350N/M458I) (human); assay: SPR, 25C
[2] = target: T1, human C3bBb (Bb from FB …); assay: SPR, 37C

T1 sequence (P01024 23-1663, chain 1 of 2): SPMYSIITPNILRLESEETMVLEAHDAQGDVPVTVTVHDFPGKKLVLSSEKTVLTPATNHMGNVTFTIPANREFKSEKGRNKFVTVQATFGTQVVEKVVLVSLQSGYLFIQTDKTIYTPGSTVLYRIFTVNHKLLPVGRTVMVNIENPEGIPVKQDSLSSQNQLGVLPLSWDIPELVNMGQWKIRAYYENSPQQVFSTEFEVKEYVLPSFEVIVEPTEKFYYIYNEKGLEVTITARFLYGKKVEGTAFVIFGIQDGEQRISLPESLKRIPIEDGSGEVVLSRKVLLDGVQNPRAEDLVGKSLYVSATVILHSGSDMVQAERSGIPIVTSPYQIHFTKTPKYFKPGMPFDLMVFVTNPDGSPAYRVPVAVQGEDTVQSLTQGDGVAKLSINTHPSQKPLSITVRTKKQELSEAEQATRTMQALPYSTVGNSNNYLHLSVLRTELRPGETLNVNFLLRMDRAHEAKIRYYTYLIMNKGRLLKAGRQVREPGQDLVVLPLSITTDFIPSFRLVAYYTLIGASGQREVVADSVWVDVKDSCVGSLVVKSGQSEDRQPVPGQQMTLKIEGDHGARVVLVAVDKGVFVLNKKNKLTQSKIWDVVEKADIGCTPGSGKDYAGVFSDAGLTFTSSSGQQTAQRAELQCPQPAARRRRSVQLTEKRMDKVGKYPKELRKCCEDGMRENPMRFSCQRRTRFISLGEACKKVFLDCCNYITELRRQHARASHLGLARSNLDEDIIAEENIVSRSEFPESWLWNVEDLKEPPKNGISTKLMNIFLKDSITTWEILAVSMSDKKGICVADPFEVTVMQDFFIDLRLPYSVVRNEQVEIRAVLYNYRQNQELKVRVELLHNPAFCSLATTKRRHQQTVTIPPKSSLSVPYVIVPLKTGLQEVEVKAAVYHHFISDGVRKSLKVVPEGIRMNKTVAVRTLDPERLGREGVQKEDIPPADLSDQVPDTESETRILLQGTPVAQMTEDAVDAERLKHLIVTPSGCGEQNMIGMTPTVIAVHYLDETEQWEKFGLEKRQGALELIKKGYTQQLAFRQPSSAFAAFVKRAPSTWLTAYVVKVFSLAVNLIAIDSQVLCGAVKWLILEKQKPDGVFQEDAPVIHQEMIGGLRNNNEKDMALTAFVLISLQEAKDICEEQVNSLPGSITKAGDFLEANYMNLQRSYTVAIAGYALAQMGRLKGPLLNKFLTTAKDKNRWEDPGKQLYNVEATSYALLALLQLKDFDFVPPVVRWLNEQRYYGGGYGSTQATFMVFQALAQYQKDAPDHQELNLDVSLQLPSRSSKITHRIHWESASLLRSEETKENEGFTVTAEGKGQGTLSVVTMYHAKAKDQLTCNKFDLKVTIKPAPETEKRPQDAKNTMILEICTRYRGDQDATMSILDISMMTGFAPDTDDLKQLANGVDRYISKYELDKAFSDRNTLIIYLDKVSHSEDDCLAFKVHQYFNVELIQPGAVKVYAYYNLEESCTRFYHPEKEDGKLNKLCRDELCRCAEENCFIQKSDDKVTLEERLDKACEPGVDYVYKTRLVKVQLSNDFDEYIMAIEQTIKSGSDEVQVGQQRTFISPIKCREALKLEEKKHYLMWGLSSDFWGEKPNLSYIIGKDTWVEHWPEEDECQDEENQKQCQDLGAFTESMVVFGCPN
T1 sequence (P00751 260-764 D279G/K350N/M458I, chain 2 of 2, further chain): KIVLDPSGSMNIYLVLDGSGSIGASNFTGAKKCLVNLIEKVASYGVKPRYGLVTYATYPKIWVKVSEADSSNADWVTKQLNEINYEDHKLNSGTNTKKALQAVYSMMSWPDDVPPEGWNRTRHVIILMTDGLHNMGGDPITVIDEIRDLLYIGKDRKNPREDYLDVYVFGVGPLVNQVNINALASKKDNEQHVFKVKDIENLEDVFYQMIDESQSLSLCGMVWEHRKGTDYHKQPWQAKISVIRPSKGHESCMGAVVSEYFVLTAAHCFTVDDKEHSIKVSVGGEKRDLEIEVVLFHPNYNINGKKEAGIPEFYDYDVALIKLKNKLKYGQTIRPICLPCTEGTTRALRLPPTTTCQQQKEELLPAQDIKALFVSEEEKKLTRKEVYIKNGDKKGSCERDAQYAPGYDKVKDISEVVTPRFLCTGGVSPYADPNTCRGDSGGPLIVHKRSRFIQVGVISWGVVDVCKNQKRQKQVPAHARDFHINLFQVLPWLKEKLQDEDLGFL

B1: P1AH1205 full Fab (antibody)
chain 1: KVQLVESGGGLVQPGGSLRLSCAASGFKWEHYAMSWVRQAPGKGLEWVGSISPRGDHKYYNTKFIDRFTISRDNDKNTLYLQMNSLRAEDTAVYYCARDWDYFDRWGQGTLVTVSSASTKGPSVFPLAPSSKSTSGGTAALGCLVKDYFPEPVTVSWNSGALTSGVHTFPAVLQSSGLYSLSSVVTVPSSSLGTQTYICNVNHKPSNTKVDKKVEPKSCD
chain 2: AIQMTQSPSSLSASVGDRVTITCQSQFWLSNYLAWYQQKPGKAPKLLIFDGDLPYERPSRFSGSGSHDEYTLTISSLQPEDFATYYCQQYREEPYTFGQGTKLEIKRTVAAPSVFIFPPSDEQLKSGTASVVCLLNNFYPREAKVQWKVDNALQSGNSQESVTEQDSKDSTYSLSSTLTLSKADYEKHKVYACEVTHQGLSSPVTKSFNRGEC
binding result (scFcRn): no binding

B7: P1AH1205 (antibody, V domains shown)
VH: KVQLVESGGGLVQPGGSLRLSCAASGFKWEHYAMSWVRQAPGKGLEWVGSISPRGDHKYYNTKFIDRFTISRDNDKNTLYLQMNSLRAEDTAVYYCARDWDYFDRWGQGTLVTVSS
VL: AIQMTQSPSSLSASVGDRVTITCQSQFWLSNYLAWYQQKPGKAPKLLIFDGDLPYERPSRFSGSGSHDEYTLTISSLQPEDFATYYCQQYREEPYTFGQGTKLEIK
Kd [1]: 0.016 nM | Kd [2]: 0.095 nM

B8: P1AG9420 (antibody, V domains shown)
VH: B7 VH with K1R, K28R, W29Y, E30D, D56N, N74D, D75E, R105H
VL: B7 VL with S25A, Q26S, F27Y, L53I, R57I, D68E, E93T
Kd [1]: < 0.001 nM | Kd [2]: 0.011 nM

B9: P1AG9426 (antibody, V domains shown)
VH: B7 VH with K1Q, W29Y, E30D, H31V, S50E, H57S, D75E, D101E, R105N
VL: B7 VL with S25A, Q26S, F27Y, L53I, R57I, D68E, E93T
Kd [1]: < 0.001 nM | Kd [2]: 0.014 nM

B10: P1AH1199 (antibody, V domains shown)
VH: B7 VH with K1Q, W29Y, E30D, H31V, S50E, H57S, D75E, D101E, R105N
VL: B7 VL with S25A, Q26S, F27Y, L53I, Y55W, R57I, D68E, E92D, E93T
Kd [1]: 0.03 nM | Kd [2]: 0.2 nM

B11: P1AG9391 (antibody, V domains shown)
VH: B7 VH with K1Q, W29Y, E30D, H31V, S50E, H57S, D75E, D101E, R105N
VL: B7 VL with S25A, Q26S, F27Y, L53I, Y55W, R57I, D68E, E92D, E93T
Kd [1]: < 0.001 nM | Kd [2]: 0.0016 nM

B12: P1AG9376 (antibody, V domains shown)
VH: B7 VH
VL: B7 VL
Kd [1]: < 0.001 nM | Kd [2]: < 0.001 nM

B13: P1AG9372 (antibody, V domains shown)
VH: EVQLVESGGGLVQPGGSLRLSCAASGFRFDIYAMSWVRQAPGKGLEWVGEISPDGRTKYYNTKFIDRFTISRDNEKNTLYLQMNSLRAEDTAVYYCARDWEYFDNWGQGTLVTVSS
VL: B7 VL
Kd [1]: < 0.001 nM | Kd [2]: 0.0116 nM

The next lines start with the values.

binding result (scFcRn): no binding
B2: P1AG9376 full IgG (antibody)
chain 1: KVQLVESGGGLVQPGGSLRLSCAASGFKWEHYAMSWVRQAPGKGLEWVGSISPRGDHKYYNTKFIDRFTISRDNDKNTLYLQMNSLRAEDTAVYYCARDWDYFDRWGQGTLVTVSSASTKGPSVFPLAPSSKSTSGGTAALGCLVKDYFPEPVTVSWNSGALTSGVHTFPAVLQSSGLYSLSSVVTVPSSSLGTQTYICNVNHKPSNTKVDKKVEPKSCDKTHTCPPCPAPEAAGGPSVFLFPPKPKDTLMASRTPEVTCVVVDVSHEDPEVKFNWYVDGVEVHNAKTKPREEQYNSTYRVVSVLTVLAQDWLNGKEYKCKVSNKALGAPIEKTISKAKGQPREPQVYTLPPSRDELTKNQVSLTCLVKGFYPSDIAVEWESNGQPENNYKTTPPVLDSDGSFFLYSKLTVDKSRWQQGNVFSCSVMHEALHNAYTQKSLSLSP
chain 2: B1 chain 2

binding result (scFcRn): no binding
B3: P1AG9372 full IgG (antibody)
chain 1: EVQLVESGGGLVQPGGSLRLSCAASGFRFDIYAMSWVRQAPGKGLEWVGEISPDGRTKYYNTKFIDRFTISRDNEKNTLYLQMNSLRAEDTAVYYCARDWEYFDNWGQGTLVTVSSASTKGPSVFPLAPSSKSTSGGTAALGCLVKDYFPEPVTVSWNSGALTSGVHTFPAVLQSSGLYSLSSVVTVPSSSLGTQTYICNVNHKPSNTKVDKKVEPKSCDKTHTCPPCPAPEAAGGPSVFLFPPKPKDTLMASRTPEVTCVVVDVSHEDPEVKFNWYVDGVEVHNAKTKPREEQYNSTYRVVSVLTVLAQDWLNGKEYKCKVSNKALGAPIEKTISKAKGQPREPQVYTLPPSRDELTKNQVSLTCLVKGFYPSDIAVEWESNGQPENNYKTTPPVLDSDGSFFLYSKLTVDKSRWQQGNVFSCSVMHEALHNAYTQKSLSLSP
chain 2: B1 chain 2

binding result (scFcRn): no binding
B4: P1AG9391 full IgG (antibody)
chain 1: B3 chain 1 with E1Q, R28K, F29Y, I31V, D54R, R56D, T57S
chain 2: B1 chain 2 with S25A, Q26S, F27Y, L53I, Y55W, R57I, D68E, E92D, E93T

binding result (scFcRn): no binding
B5: P1AH1199 full Fab (antibody)
chain 1: B1 chain 1 with K1Q, W29Y, E30D, H31V, S50E, H57S, D75E, D101E, R105N
chain 2: B1 chain 2 with S25A, Q26S, F27Y, L53I, Y55W, R57I, D68E, E92D, E93T

binding result (scFcRn): no binding
B6: P1AG9426 full IgG (antibody)
chain 1: B3 chain 1 with E1Q, R28K, F29Y, I31V, D54R, R56D, T57S
chain 2: B1 chain 2 with S25A, Q26S, F27Y, L53I, R57I, D68E, E93T
